Results published in US20110262386A1, “METHODS OF TREATING INFLAMMATION” (CAROLUS THERPEUTICS, INC., priority 2008, published 2011).

Columns and labels:
[1] = target: CXCR4-bearing Jurkat cells (Homo sapiens, UniProt P61073)
MonoMac6 cells = assay: Monocytic cell arrest under flow on CHO/ICAM-1 cells; format: cell-based; settings: exposure 2 h, flow conditions
Description: (§1) Arrest of calcein-AM (Molecular Probes)-labeled monocytes, T cells and L1.2 transfectants was quantified in parallel-wall chambers in flow (1.5 dynes/cm^2, 5 min) (Schober, A., at al. (2004) Circulation 109, 380-385; Osterman, G., at al. (2002) Nat. Immunol. 3, 151-158; Weber, C., at al. (1996) J. Cell Biol. 134, 1063-1073).

[2] = system: primary human effector T cells; assay: T-cell arrest under flow on aortic endothelial cells; format: cell-based; settings: immobilized on aortic endothelial cells
Description: as §1

[3] = system: mice with wild-type bone marrow; assay: Model of acute peritonitis (MIF-induced); format: in vivo, mouse; settings: after 4 h
Description: After 4 h, peritoneal lavage was performed and Gr-1^+CD115^−F4/80^− neutrophils were quantified by flow cytometry using the relevant conjugated antibodies.

CCR5 = target: T1, CCR5 (Homo sapiens, UniProt P51681); assay: CCR5 internalization in L1.2 CCR5 transfectants; format: cell-based
T1 construct: host or cells: L1.2 pre-B lymphoma cells
Description: (§2) Internalization was calculated relative to surface expression of buffer-treated cells (100% control) and isotype control staining (0% control): geometric MFI[experimental]−MFI[0% control]/MFI[100% control]−MFI[0% control]×100.

[4] = system: human aortic (or venous) endothelial cells; assay: Real-time PCR and ELISA of arrest chemokines in endothelial cells; format: cell-based; settings: 2-h-long preincubation
Description: RNA was reverse-transcribed using oligo-dT primers. RTPCR was performed using QuantiTect Kit with SYBRGreen (Qiagen), specific primers and an MJ Opticon2 (Biozym). CXCL8 was quantified by Quantikine ELISA (R&D).

αLβ2 (LFA-1) = assay: αLβ2 integrin activation assay (327C reporter antibody, flow cytometry); format: cell-based; settings: MonoMac6 cells and human blood monocytes; persisted over 30 min
Excerpt: LFA-1 activation analyzed by flow cytometry is reported as the increase in mean fluorescent intensity (MFI) or relative to the positive control (Shamri, R., at al. (2005) Nat. Immunol. 6, 497-506).

[5] = system: postcapillary venules of cremaster muscle; assay: Cremaster microcirculation model, intravital microscopy; format: in vivo, mouse; settings: MIF injected adjacent to the muscle
Description: After 4 h, intravital microscopy (Zeiss Axioplan; 20×) was performed in postcapillary venules (Gregory, J. L., at al. (2004) Arthritis Rheum. 50, 3023-3034; Keane, M. P., at al. (2004) J. Immunol. 172, 2853-2860). Adhesion was measured as leukocytes stationary for more than 30 s, emigration as the number of extravascular leukocytes per field.

CXCR2 [6] = target: T2, CXCR2 (Homo sapiens, UniProt P25025); assay: CXCR2 internalization assay, HEK293-CXCR2; format: cell-based; settings: FACS of surface CXCR2, stable HEK293 transfectants
T2 construct: expressed in transfected cells
T2 sequence (P25025 1-360): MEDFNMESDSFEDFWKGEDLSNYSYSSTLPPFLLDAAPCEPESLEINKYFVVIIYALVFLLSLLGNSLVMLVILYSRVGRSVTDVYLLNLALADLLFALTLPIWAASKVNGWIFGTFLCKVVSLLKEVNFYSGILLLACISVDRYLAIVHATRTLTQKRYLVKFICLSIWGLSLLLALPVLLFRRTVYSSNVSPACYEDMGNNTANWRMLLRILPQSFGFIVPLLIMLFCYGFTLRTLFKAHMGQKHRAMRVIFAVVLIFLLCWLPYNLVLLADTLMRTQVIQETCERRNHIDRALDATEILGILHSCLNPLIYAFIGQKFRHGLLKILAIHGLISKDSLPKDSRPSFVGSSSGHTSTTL
Description: as §2

[7] = system: primary human neutrophils; assay: Calcium mobilization in neutrophils (Fluo-4 AM); format: cell-based
primary human monocytes [8] = assay: Transwell chemotaxis of monocytes; format: cell-based
Description: (§3) Pore sizes and intervals were 5 μm and 3 h (monocytes), 3 μm and 1.5 h (T cells), and […] and 1 h (neutrophils).

CXCR2 [9] = assay: Calcium mobilization in L1.2 CXCR2 transfectants; format: cell-based
[10] = system: primary CD3+ T lymphocytes; assay: Transwell chemotaxis of T cells; format: cell-based, human; settings: CD3+ T lymphocytes devoid of CXCR1 and CXCR2
Description: as §3

primary human monocytes [11] = assay: Monocyte arrest under flow on human aortic endothelial cells; format: cell-based; settings: endothelial cells pretreated 2 h, flow conditions
Description: as §1

[12] = system: primary human neutrophils; assay: Transwell chemotaxis of neutrophils; format: cell-based
Description: as §3

[13] = 12 weeks, compared with vehicle controls

Sequence of CXCR4-bearing Jurkat cells (P61073 whole entry): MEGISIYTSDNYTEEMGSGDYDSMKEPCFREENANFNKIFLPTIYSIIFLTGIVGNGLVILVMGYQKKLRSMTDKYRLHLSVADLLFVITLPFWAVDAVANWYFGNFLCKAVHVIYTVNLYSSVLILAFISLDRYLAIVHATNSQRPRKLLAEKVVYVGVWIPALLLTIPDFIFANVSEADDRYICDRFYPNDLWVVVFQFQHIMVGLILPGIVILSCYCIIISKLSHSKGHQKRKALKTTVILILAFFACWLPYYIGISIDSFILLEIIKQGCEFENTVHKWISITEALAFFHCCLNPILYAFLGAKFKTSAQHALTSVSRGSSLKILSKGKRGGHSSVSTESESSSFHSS
T1 sequence (P51681 whole entry): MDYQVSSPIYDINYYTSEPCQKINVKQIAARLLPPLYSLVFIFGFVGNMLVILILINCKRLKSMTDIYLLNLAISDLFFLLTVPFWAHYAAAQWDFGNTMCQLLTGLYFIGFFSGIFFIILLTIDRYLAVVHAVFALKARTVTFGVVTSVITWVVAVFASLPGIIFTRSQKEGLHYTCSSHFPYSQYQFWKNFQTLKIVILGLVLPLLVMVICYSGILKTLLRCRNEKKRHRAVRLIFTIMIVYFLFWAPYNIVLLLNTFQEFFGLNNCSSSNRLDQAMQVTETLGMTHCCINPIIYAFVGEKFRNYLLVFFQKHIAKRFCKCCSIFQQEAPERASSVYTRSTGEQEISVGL

## c1ccc(CNCc2ccc(CN3CCCNCCNCCCNCC3)cc2)nc1 [AMD3465]
Apoe−/− mice; [13]
  lesion formation in oil red O-stained aortic root sections: significantly exacerbates lesion formation
  lesion formation in thoracoabdominal aortas prepared en face: significantly exacerbates lesion formation
Apoe−/− mice; further increases during disease progression
  relative number of circulating neutrophils: expansion in the relative number of circulating neutrophils
Apoe−/− mice; within 2 days, sustained throughout the study period
  peripheral blood leukocytes: pronounced peripheral blood leukocytosis
[1]
  effect on specific binding of fluorescein-MIF to CXCR4-bearing Jurkat cells: inhibited

## CXCL8: Chemokine from PeproTech; cognate CXCR2 ligand [reference compound]
MonoMac6 cells
  monocytic cell arrest on pretreated CHO/ICAM-1 transfectants: increased monocytic cell arrest

## CXCL12: Chemokine from PeproTech; known CXCR4 ligand and T-cell chemoattractant [reference compound]
[2]
  arrest of primary human effector T cells: triggered the arrest

B1: MIF: Recombinant MIF, expressed and purified as described; pro-inflammatory cytokine, ligand for CXCR2, CXCR4 and CD74 (protein)
chain: PMFIVNTNVPRASVPDGFLSELTQQLAQATGKPPQYIAVHVVPDQLMAFGGSSEPCALCSLHSIGKIGGAQNRSYSKLLCGLLAERLRISPDRVYINYYDMNAANVGWNNSTFA
[3]
  neutrophil recruitment after intraperitoneal injection: elicited neutrophil recruitment
CCR5
  CCR5 internalization: unable to induce CCR5 internalization
[4]
  upregulation of arrest chemokines known to engage CXCR2 (CXCL1, CXCL8): failed to upregulate
MonoMac6 cells
  monocytic cell arrest on pretreated CHO/ICAM-1 transfectants: increased monocytic cell arrest
αLβ2 (LFA-1)
  earliest time of αLβ2 activation after exposure: 1 min
[5]
  leukocyte adhesion and emigration in postcapillary venules: marked increase
CXCR2 [6]
  CXCR2 internalization: induced CXCR2 internalization
[7]
  calcium influx in neutrophils: induced calcium influx
[2]
  arrest of primary human effector T cells: triggered the arrest
Primary human monocytes [8]
  MIF concentration that induced optimal chemotaxis: 2 to 4 nM
Primary human monocytes [8]; MIF in lower chamber
  optimum concentration of bell-shaped dose-response curve of monocyte migration: 25 to 50 ng/mL
CXCR2 [9]
  calcium influx in CXCR2 transfectants: dose-dependently induced calcium influx, and was slightly less potent and effective than CXCL8 or CXCL7
[10]
  induction of T-cell transmigration: dose-dependently induced transmigration
Primary human monocytes [11]
  arrest of primary human monocytes on pretreated endothelial cells: substantially increased
[12]
  chemotactic activity on neutrophils: exerted CXCR2- but not CXCR1-mediated chemotactic activity
